Assay results: the DeepSol protein solubility set

assay: soluble on expression in E. coli; label from the status in PepcDB or PDB records

Row | Sequence | soluble on expression in E. coli
1 | MGSDKIHHHHHHMATIDLIVLGIVKQQPKSAYDIQKAVEYRNISRWVKISTPSIYKKVIQLEQKGYIESKTVKNGKMPEKAVYSLTELGETHFLDLMFDTSSKPINILLDFNAVIVNLNSLTPEKQKLCLNNIEENVQELKKTIEENISIKTEVPETAKAVLEQQLVLAQALETWINSLKDNTGN | not soluble
2 | MGSDKIHHHHHHMATKSLRRQDLEVHLGSTGQVVGRLYLGSGKRSAFSYDERWLRDARFFTLSPDLLPVLSVQHPQEVFFRALEDTAPDSWGERVIRRAHARLRQQDGETPPLEPVDFLMWVDDEARVGALRLFDPHAKVYLRSGATPGHVPPLVELDKVVQAARALEAGTETARDLQYLLGQGTSLGGARPKSSVRDTDGRLALGKFPSQADRRDVIRGEVLAMHLAAKAGIKVAAARVELIGGTAVAIIRRFDRTDDGGRIPYVSAATMLQSDGRDTVHAYTELVDVLLREGADPIADIHQLWRRLVLNFLICNTDDHLRNTGFLYDSRNHGWRLSPAFDLNPMPGDRRESKTWLTEDSGPIESRDMLMEGAPYFRLAAEEAAAIWTEVAQAVGSWRVVARGLGMQGTDLVDFEPAFA | not soluble
3 | MGSDKIHHHHHHMATLGANASLYSEQHRITYYECDRTGRATLTTLIDIAVLASEDQSDALGLTTEMVQSHGVGWVVTQYAIDITRMPRQDEVVTIAVRGSAYNPYFAYREFWIRDADGQQLAYITSIWVMMSQTTRRIVKILPELVAPYQSEVVKRIPRLPRPISFEATDTTITKPYHVRFFDIDPNRHVNNAHYFDWLVDTLPATFLLQHDLVHVDVRYENEVKYGQTVTAHANILPSEVADQVTTSHLIEVDDYYCCEVTIQWRTLPEPIQ | not soluble
4 | MGSDKIHHHHHHMATLSKKIDFAIIMSVKNANPNGDPLNGNRPRTDYEGLGEITDVCLKRKIRDRLVEQYVSLKNEEEKKGQAIFVQSDDRKIDGETSLRNRAESEKNGLGKKAFGANAKKDETAKSACEKWFDVRAFGQVFAFGKGNDADGVSIPVRGPVTIQSAFSRDLVSISSTQITKSVSGEGDGKKRSSDTMGMKHRVDRGIYVTYGTMNPQLAERTGFSDKDAAVIKAILPKIFENDASSARPEGSMEVVKVLWWQHNSKSGDYSSAKVHRSLKVNPDGSYIIEPLNGLVPEEIAGF | not soluble
5 | MGSDKIHHHHHHMAYRDQSLGELAIAIPRATKLFRELNLDFCCGGKQTLSRAAGKKDLNIDELEAQLEKLAAQPSDARDWREAPLADIIAYIIPRFHDRHREQLPELILMAKKVERVHHDKADCPHGLANQLTAIYNELSQHMMKEERILFPMIGQGMGANAAAPISVMEHEHDDAGRDVEVVKELTNGVVPPEGACNTWRALYSGINEFITDLMEHIHLENNLLFPRALRGE | not soluble
6 | MGSDKIHHHHHHMAYTVLLVTSVNTYKEQLNHPIMSDVGKLLPTKIKRVESATDEHSLIKLVQDANVSGEKISIAGMQHSQGGQTYYPHGTMLDMKGYNKILEFDPEKKRITVQSGATWNDIQKKVNPYGLAVQVMQSQNIFTVGGSLSVNVHGRDIRHEALIDTVESFRLLMADGTVRNVSREENADLFPYVIGGYGLFGVILDVTLKLTNDELYETHTKMLDYKEYTSYFKEKVKKDENVRMHLARISVAPNSFFREMYVTDYTLAKNQNMREEYSKLKEETIIAAPKFLLGLSRYSDWGKDTFWDIQRSYFERTDGKYETRNNVMRSDSAFMEYENPNRTEVLQEYFVPIDFFTEYIDDLRNVLNEEEFNLLNITVRYVEKNENAVLSYAKDDMFALVLLINQGRSEHEIKKTENVIQKMIDVTLKHNGSYYLPYYSYPSKEQLRRAYPRIEEFLQKKKEADPKERFVNLFYREYTK | not soluble
7 | MGSDKIHHHHHHMCQRAIANIDISKEYDESMGSNDVHYQSFARMADFFGRDMQAHRHDQFFQMHFLDTGQIELQLDDHRYSVQAPLFVLTPPSVPHAFITESDSDGHVLTVREELVWPLLEVLYPGTREAFGLPGICLSLADKPNELAALKHYWQLIERESTEQLAGCEHTLVLLAQAVFTLLLRNAKLDDHAATGMRGELKLFQRFTLLIDNHFHQHWTVPDYACELHITESRLTDICRRFANRPPKRLIFDRQLREAKRLLLFSDNAVNEIAWQLGFKDPAYFARFFNRLAGCSPSQFRQREVPSFLN | not soluble
8 | MGSDKIHHHHHHMCRWAAYIGPPVHLDEVVCKPEHSLVAQSVHAFECKTQTNADGFGIAWYDSREEPGLYRDTHPAWSDPNLKSITHQVRSGLFLAHVRASTGTATSRNNCHPFTHGCWSFMHNGQVGGFENFRRRADMIIPDELYSARKGATDSEALFLIAIAEGLYEDPKGAMQRAVGRLEALSREFGHTPHMRIGAAFSCGGALYAVRYASDHLAPTVYSSKSADGTGRLVVSEPLHKGECWEAVPAGSFCRFTADDTEIEDFVPQF | not soluble
9 | MGSDKIHHHHHHMCTVQSNITSHVKKLEEELGVILLNRHNPVTLTNAGHQLHSYAVQMIALHNKAKTIFREGDIDPNETIRLGSMETTAAIRLPQLLNECMQQHPNLPLELQTHPTGYLLNAVQQGEVDCAFVASKYVIPELYSFPVWQEQLVLVCPKQQIDFPDIATLAKTRFIAFRQGCSYRHAIELFLNDHSVPPSQIMEMGSLDGIVSCVELGVGFALLPKSYLNKVADKVSLSCFEINTESAHFTTYLVAQPPETWGSNLKQFICFIEQQFIQKCA | not soluble
10 | MGSDKIHHHHHHMDAKTIIENRFQSQKLIQTAWSDSPERIVFHFGAMQSQNYGQSLWAVGSRMTTPSEESVEQAINNGEIIRTWLLRGTIHLFSAKDYHWMMDLIAPTIDKICKPYRAKLGLTDEVLHKATEVVSEIVSEQAVTRKDLAAHLATKDLPSAGIPFAQLLVYLSSRKVICSGPNETFRNTMHIPADTNHFTREEAIKELAKRYIQSHAPATLKDFCFWSGLTVTDAKIGLADMPKMGDYYITTLVENGTMPTTIPLAGFDEWIIGYRDRSVVLPEIWHDEIMTKNGIFRPAIITEGKVVGKWEKPKKRAELDGDFWDRYIQFRNML | not soluble
11 | MGSDKIHHHHHHMDAMPSTTAITVSQLSRLVGLPGVPVIIDVRIDEDFDADPRLLPASIRRDFKTVSTWAPDFAGKPVVVVCQKGLKLSQGVAAWLRHEGIPAESLEGGFEAWREADGLLVSTDKLPPRDEKGRTVWVTRSRPKVDRIACPWLIRRFVDPRAVFLFVEAAEVPAVADRFQAVPFDIDNVFWSHRGERCTFDTMIEEFGLESTALDRLAAIVRAADTARLDLVPQAAGFLAASLGLSRMFRDDLEQLEAGMLLYDAFFRWCRDATEETHNWPSAGKPS | not soluble
12 | MGSDKIHHHHHHMDEVESNFLTVGTLNRYLSAKFVHDPYLKQVSLTGEIFGYKISSGSAYFELRDEDESSIRAYVSPTILRGFPFDFKSGDKVNLVADVRLYGKRAYASLFIFSMQPAGLGELYLKLAELKNKLTKEGIFNRPTKELNYFPKKIAVITSKTGAVIHDISSTIGHRNPNLKIELFESSVQGDSAVKELVSAVKKADQSDADAIIIARGGGSTLDLWPFNDEQLVRLLSSLSKPVISSIGHETDVTLTDLAADYRVETPTAAANKVTPAILDYRNNLDQLTALMSVDIKQLLQKNLNRFEYLANSPALKSFDQVFFNHEQKLQNLNLRLANSFAGEFQKNIQQFANLTAKLDALSPLKVLDRGFSLTFKGDRLIKNAQQLKEKDHIKILFAKGSALAEIKEISDDRRI | not soluble
13 | MGSDKIHHHHHHMDFKELFPEVITKQEVKQSEDYIIVEQDGHVLHFPKSSLTKRELYLLQMTPSLEDASSVDSQNPWYRYLVEGRGRLPQSHSAVQFIFIEHQFTLSEELKDFLSPLVINVETIMTINQTQSVMILNQDNFFNATELLTDILPTIENDFNTRLRCYFGNSWTHLQAVDWKELYEEEYKLFTLFLSHKAEQHYCRFPKMALWALANQSPMPSIKAKCLQHILDTSDTSAIIKALWQEQGNLAKTAKALFIHRNSLQYKLDKFTQSSGLNLKILDDLAYAYLISMDT | not soluble
14 | MGSDKIHHHHHHMDFSDEKMPFLADAVDRVRVEECFRQCLVIAQNFRVQNIRVIRHKLGRRCLIEYELMDDVGEIITLIGKVRAKGTDFHSYELQKSLWESGFADDSADGISVPEPVGIIPEWQMWLQRRVEGVTATQILSQTNGIFPAKLIAEAAYKLHQANIIPRRSHRMSDELRILHERIPLVMEQYPQWQRRLERILLASDDLGANTPELKLCGIHRDFYPDQVIMNNSRLYLLDLDLYCAGNPAVDIGNFIAHLQEYSLRTVGNPQALQEYEDILKTRFLQLTGDEFSLAIQAYTILTLVRHIYISTLFPERRPFTAALLHLCEQRLNITHNS | not soluble
15 | MGSDKIHHHHHHMDGLLNPRESSKFIAENSRDVFIDSGGVRRVAELLLAKAAGPELRVEGWKALHELNPRAADEAAVNWVFVTDTLNFSFWSEQDEHKCVVRYRGKTYSGYWSLCAAVNRALDEGIPITSASYYATVTLDQVRNILRSDTDVSMPLVEERHRILNETGKILLEKFGGSFLNCVRESENSAQKLMHLVVESFPSYRDVTLFEGKRVSFYKRAQILVADTWSVLEGKGDGCFKDISSITMFADYRLPQVLAHLGALKYSDDLLKKLLKGEMLSYGDRQEVEIRGCSLWCVELIRDCLLELIEQKGEKPNGEINSILLDYYLWDYAHDHREDMKGIPFHRIRCIYY | not soluble
16 | MGSDKIHHHHHHMDISIARTFLEVVKTGSFVNAAANLNISQTAVSARIRVLEEQLDRPMFVRNKAGARLTPAGEQFFRFATSLVQVWEAARTTVALPPGREAMVTIGAELSLWNPLLKHWLLWMRRECASVAIRTTIDRSERLMELVQDGSLDAAVLYGAPNRPGTLTELLFEEKLVLVRTTALSQPPGPEDLVGIDWGEDFAGSYRAAFPGGRNPVVAISYGPLALDYILEVGGSGYFRQGFVRPYLVDGRLELVPNSPEFAYPAYLVSSAKADRSMLDRIRAGLRAAASSAGV | not soluble
17 | MGSDKIHHHHHHMDKLASEYKVLIVDDVPTNVMLVQAILKKEGYTLLTCDSGTKALRIANEKHPNLILLDIMMPEMDGYEVLQHLKSNPETTDIPVIIMSALSDMQSIVKGYQLGATEYVTKPFQREELVKRVAHRYELYSIKRIKAELENTIESRDTLYSVIAHDLRSPLGSLKMMNNAILMMVDKERVGDEVYEMIQMMNKTSEEIFLLLDNLLKWAKNRLNKQHVYKQQTDINSIIDSTAEMYVPMAAQKGVKIILENLDKELVGLVDIDMLKTIIRNLISNAMKFSFEGGTITLSSRSEGDFVTVSVKDTGKGIKKEDQDKLLKQDSHFTTYGTKNEKGSGLGLMLCKDFVELHGGKLWFESEGEGKGTTFLFSMKALNQEA | not soluble
18 | MGSDKIHHHHHHMDKLDFRSQDFSQTGKAMYELACELFPIPRSITGQGFRDSLEILNKTLGGGILKFHSIKSGTKVFDWIVPDEWNVKEAYIITPKGEKICDFKKHNLHLLNYSEAIDQEIELEELQDHLYSIEEMPDAIPYVTSYYKRRWGFCLTHNERKKLKKGKYKVYIDAKHDENGVLDYADFILPSTQNSKDEILISTYLCHPSMANNELSGPVVSIFLAKWLLGLKERRYNYRFVIIPETIGSIVYLSKHLECLKKHVKAGFVLSCLGDDHTYSLIHTVKENTLSDKVALHTLKNKENFKAFSFLDRGSDERQYNAPLVNLGIVGVCRTRYGDYDGYHNSKDDLNFISEKGLMGGLQSMQEMILNLEINAVYENTIVCEPNLGKRGLYHTLSTTNDIPLACNFLAYCDGENDIIDIANILNMQAYEFKELLEKIKFYGLVK | not soluble
19 | MGSDKIHHHHHHMDKLRAIQLFVRLADLGSFTRVAEQVNSSKSMISKEISRLEADLGTRLLHRSTRSVQLTHVGEGYLQRAREILSKLDDADNFVQDLQQNLRGKLKINAPMALGITDLSHLFADFMKANPEIELDIHLGDESVDLVEQGFDLGFRASSQPIDSNYVGRPLTRFTYKVCVSPDYLKMHSTITHPRDLKEHNCFIYSYFQGKNVWPIEGGIEVKGSLRVNNTMFMMESIKQGLGIGFIPDFVCQQAINSGQVVEVLADSKKSMLTLYALYPVRNFVPPKLVQCIEYLEQWFADKDKP | not soluble
